The results in this text go back to the RNAGym collection of RNA variant scans (doi:10.1101/gr.219683.116).

First the molecules themselves.
B1: mRNA-splicing (parent)
chain: AGUUGCUGCUGGGAGCUCCAGCACAGUGAAAUGGACAGAAGGGCAGAGCAA

In the data set the parent is B1. Kind of data set: exon inclusion enrichment index; higher = more inclusion; WT1 exon 5 minigene, HEK293.
Regarding G5C C6G U7C U10C A45G G46C, the “exon inclusion enrichment index” value was found to be 3.05.
Take G5C C6G U7C U10C A45G G46A: the “exon inclusion enrichment index” value came to 6.29.
Under G5C C6G U7C U10C A45G G46U stands 3.14.
Under G5C C6G U7C U10C A30G A31G stands 1.71; under G5C C6G U7C U10C A30G A31U, 1.7.
On to G5C C6G U7C U10C A30G A31C, for which the “exon inclusion enrichment index” value stood at 0.674.
As for G5C C6G U7C U10C G28A, the figure is 1.63; as for G5C C6G U7C U10C G28C, 2.68; as for G5C C6G U7C U10C G28U, 1.05.
As for G5C C6G U7C U10C C22A A23C, the figure is 3.98.
As for G5C C6G U7C U10C C22A A23U, the figure is 2.83; as for G5C C6G U7C U10C C22A A23G, 3.83.
Consider G5C C6G U7C U10C A47G G48C, for which the “exon inclusion enrichment index” value amounted to 2.32.
As for G5C C6G U7C U10C A47G G48A, the figure is 2.55.
As for G5C C6G U7C U10C A47G G48U, the figure is 0.733.
G5C C6G U7C U10C G12U G13A: the “exon inclusion enrichment index” value was found to be 0.404.
Turning to G5C C6G U7C U10C G12U G13U, the “exon inclusion enrichment index” value stood at 0.206.
Under G5C C6G U7C U10C G12U G13C stands 0.741; under G5C C6G U7C U10C G42C G43C, 3.63.
Under G5C C6G U7C U10C G42C G43U stands 3.91; under G5C C6G U7C U10C G42C G43A, 4.
Under G5C C6G U7C U10C C24G A25C stands 4.6; under G5C C6G U7C U10C C24G A25G, 2.96; under G5C C6G U7C U10C C24G A25U, 3.91.
As to G5C C6G U7C U10C G15U C16U, the “exon inclusion enrichment index” value was 3.3.
Under G5C C6G U7C U10C G15U C16A stands 3.58; under G5C C6G U7C U10C G15U C16G, 4.02; under G5C C6G U7C U10C G13A A14U, 2.93.
Under G5C C6G U7C U10C G13A A14C stands 3.48; under G5C C6G U7C U10C G13A A14G, 3.3; under G5C C6G U7C U10C C36G, 3.17.
G5C C6G U7C U10C C36A: the “exon inclusion enrichment index” value came to 2.93.
Under G5C C6G U7C U10C C36U stands 1.33; under G5C C6G U7C U10C G34U, 1.32; under G5C C6G U7C U10C G34A, 2.69.
As for G5C C6G U7C U10C G34C, the figure is 1.79; as for G5C C6G U7C U10C A31U, 3.18.
Under G5C C6G U7C U10C A31G stands 3.79; under G5C C6G U7C U10C A31C, 3.8.
For the variant G5C C6G U7C U10C A31U U32A, the “exon inclusion enrichment index” value is 0.77.
As to G5C C6G U7C U10C A31U U32G, the “exon inclusion enrichment index” value was 2.24.
For the variant G5C C6G U7C U10C A31U U32C, the “exon inclusion enrichment index” value is 3.76.
Consider G5C C6G U7C U10C A39U A40U, for which the “exon inclusion enrichment index” value was found to be 1.88.
Turning to G5C C6G U7C U10C A39U A40C, the “exon inclusion enrichment index” value was 3.55.
G5C C6G U7C U10C A39U A40G: the “exon inclusion enrichment index” value amounted to 1.59.
As for G5C C6G U7C U10C G11A G12A, the “exon inclusion enrichment index” value was determined as 1.91.
Under G5C C6G U7C U10C G11A G12C stands 1.51.
On to G5C C6G U7C U10C G11A G12U, for which the “exon inclusion enrichment index” value was found to be 1.83.
Under G5C C6G U7C U10C G12A stands 2.53; under G5C C6G U7C U10C G12C, 0.252.
As for G5C C6G U7C U10C G12U, the figure is 1.53; as for G5C C6G U7C U10C G41C G42C, 4.35.
For the variant G5C C6G U7C U10C G41C G42U, the “exon inclusion enrichment index” value is 4.21.
As for G5C C6G U7C U10C G41C G42A, the figure is 3.
On to G5C C6G U7C U10C A39C A40U, for which the “exon inclusion enrichment index” value turned out to be 1.72.
As for G5C C6G U7C U10C A39C A40C, the figure is 3.63; as for G5C C6G U7C U10C A39C A40G, 3.52.
Under G5C C6G U7C U10C G43A stands 5.08; under G5C C6G U7C U10C G43C, 2.7; under G5C C6G U7C U10C G43U, 2.89.
As for G5C C6G U7C U10C A37G, the figure is 4.39; as for G5C C6G U7C U10C A37U, 3.22.
For the variant G5C C6G U7C U10C A37C, the “exon inclusion enrichment index” value was determined as 4.16.
Under G5C C6G U7C U10C G12A G13A stands 1.51; under G5C C6G U7C U10C G12A G13U, 0.589; under G5C C6G U7C U10C G12A G13C, 1.55.
As for G5C C6G U7C U10C A39G, the figure is 2.45.
Under G5C C6G U7C U10C A39C stands 1.45; under G5C C6G U7C U10C A39U, 0.26; under G5C C6G U7C U10C G15A, 2.71.
As for G5C C6G U7C U10C G15C, the “exon inclusion enrichment index” value amounted to 3.44.
For G5C C6G U7C U10C G15U, the “exon inclusion enrichment index” value was found to be 3.45.
As for G5C C6G U7C U10C G38U A39U, the figure is 0.22.
As for G5C C6G U7C U10C G38U A39C, the figure is 3.03; as for G5C C6G U7C U10C G38U A39G, 2.02.
Under G5C C6G U7C U10C C18U C19U stands 0.197; under G5C C6G U7C U10C C18U C19G, 2.78; under G5C C6G U7C U10C C18U C19A, 0.76.
Turning to G5C C6G U7C U10C C22G A23C, the “exon inclusion enrichment index” value is 2.56.
Under G5C C6G U7C U10C C22G A23G stands 2.57.
Under G5C C6G U7C U10C C22G A23U stands 1.01; under G5C C6G U7C U10C G11U, 3.33; under G5C C6G U7C U10C G11A, 2.79.
